Measurements published in paper PMC4463452, “Olfactomedin-1 Has a V-shaped Disulfide-linked Tetrameric Structure*^([image sbox.jpg])” (The Journal of Biological Chemistry, 2015).

Target: the molecule itself
Test: SEC-MALS; analytical Superdex200 5/150, room temperature, GF buffer (150 mM NaCl, 20 mM HEPES, pH 7.5); oligomeric state of the disulfide-linked assembly

B1: full-length Olfm1 (mouse olfactomedin-1, isoform 1, residues 17-478) (natural protein, UniProt O88998 17-478, looked up)
chain: MITNWMSQTLPSLVGLNTTRLSAASGGTLDRSTGVLPTNPEESWQVYSSAQDSEGRCICTVVAPQQTMCSRDARTKQLRQLLEKVQNMSQSIEVLDRRTQRDLQYVEKMENQMKGLETKFKQVEESHKQHLARQFKAIKAKMDELRPLIPVLEEYKADAKLVLQFKEEVQNLTSVLNELQEEIGAYDYDELQSRVSNLEERLRACMQKLACGKLTGISDPVTVKTSGSRFGSWMTDPLAPEGDNRVWYMDGYHNNRFVREYKSMVDFMNTDNFTSHRLPHPWSGTGQVVYNGSIYFNKFQSHIIIRFDLKTEAILKTRSLDYAGYNNMYHYAWGGHSDIDLMVDENGLWAVYATNQNAGNIVISKLDPVSLQILQTWNTSYPKRSAGEAFIICGTLYVTNGYSGGTKVHYAYQTNASTYEYIDIPFQNKYSHISMLDYNPKDRALYAWNNGHQTLYNVTLFH
modifications: N-linked glycans (eight predicted); interprotein disulfides
notes: the C-terminal VIRSDEL segment is not included; the native signal peptide is replaced by an N-terminal cystatin secretion signal of the vector pUPE107.03; also called noelin; pancortin; source: N-acetylglucosaminyltransferase I-deficient, EBNA1-expressing HEK293 cells, transient expression, secreted; purified (nickel-nitrilotriacetic acid, Superdex200 gel filtration); also unpurified in …
  stoichiometry N: 4
